B1: Shugoshin-1 (Schizosaccharomyces pombe (strain ATCC 38366 / 972)), Q9P7A0 (parent)
chain: MNFQFINSNINNEDKLPMESLKKKFLKQNREIIKINTQLSIKIRESENEIQDLIQENFTLKSYLVKLEARFRNQSQTEDLLKNFFPEIQTIHKKISQVQSLLKIIEKKCSSDFLEANVKSQFTTCENKDSKEDYQILHNKRLEYVSFNDELKSLETGQPLYCFQDFQKKVHGPPALSEKPGKCILKDKTNAHVNKIPQDEVNYSLPQKNITIFSKELKENEFESINEGETEEEKAKTSNVCVCIPCKSAEQITDLKGQATGDSSPCDFEESQPRINGREKLRRSVKVINYAIPSLRTKLRRDFDLPSDRKRKRHPRGKA
partner: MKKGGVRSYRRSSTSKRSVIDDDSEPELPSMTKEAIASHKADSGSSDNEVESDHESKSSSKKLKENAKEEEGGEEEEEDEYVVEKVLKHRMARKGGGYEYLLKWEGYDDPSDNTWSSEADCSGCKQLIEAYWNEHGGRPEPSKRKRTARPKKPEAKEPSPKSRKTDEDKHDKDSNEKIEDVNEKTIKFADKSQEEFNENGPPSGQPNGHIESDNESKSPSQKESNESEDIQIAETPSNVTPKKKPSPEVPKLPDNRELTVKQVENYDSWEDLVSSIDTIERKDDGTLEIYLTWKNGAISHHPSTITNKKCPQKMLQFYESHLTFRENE
B2: Chromatin-associated protein swi6 (Schizosaccharomyces pombe (strain ATCC 38366 / 972)), P40381 (parent)
chain: B1 partner
partner: B1 chain

Variants of: B1
Details: with swi6_schpo swi6, P40381

Row | effect of a mutation on the interaction | Variant
1 | disrupting interaction strength | V242E

Variants of: B2
Details: with sgo1_schpo sgo1, Q9P7A0

Row | effect of a mutation on the interaction | Variant
2 | disrupting interaction strength | F324A
